Results on four molecules are retold here after article PMC10787639 (Frontiers in Molecular Biosciences, 2023).

The target of data set [1] is Chaetomium thermophilum PCNA (proliferating cell nuclear antigen) (Chaetomium thermophilum). Description: crystal structure; Ct PCNA (14 mg/mL) mixed with Ct PolD3 PIP peptide (8 mg/mL in dH2O); crystals in 0.1 M phosphate/citrate pH 4.2, 40% PEG 300; space group P1, one PCNA trimer in the asymmetric unit; 2.45 A; the peptide occupies a single PIP binding site, the others occluded by crystal packing.

The format of data set [2] is physicochemical. The conditions noted are these: lyophilised peptide; resuspended in DMSO at 8 mg/mL (4.8 mM) instead. The source says: A 15mer Ct PolD3 PIP peptide spanning residues 437–451 (sequence: ^437GKGGQGSIMSWFAKK^451) and a 15mer Ct Fen1 peptide spanning residues 339–353 (^339GAQQARIEGFFKVIP^353) were commercially synthesised (GenScript, Piscataway, New Jersey, United States) and obtained in lyophilised form at final purities of 99.4% and 99.1%, respectively.

Data set [3] addresses PolD4 (Homo sapiens) (UniProt Q9HCU8). Put plainly: ITC. The conditions noted are these: cited from earlier work.
Data set [4] concerns the target PolD3/p66 (Homo sapiens) (UniProt Q15054). Description: ITC. The conditions noted are these: cited from earlier work.
The target of data set [5] is Chaetomium thermophilum PCNA (proliferating cell nuclear antigen) (Chaetomium thermophilum). Description: ITC; 420 uM Ct PolD3 peptide injected into 300 uL of 32.7 uM Ct PCNA; 25°C; 50 mM Tris-HCl, 150 mM NaCl, pH 8.0; duplicate; single site model (1 peptide: 1 PCNA protomer).

PCNA, sequence (P12004 whole entry): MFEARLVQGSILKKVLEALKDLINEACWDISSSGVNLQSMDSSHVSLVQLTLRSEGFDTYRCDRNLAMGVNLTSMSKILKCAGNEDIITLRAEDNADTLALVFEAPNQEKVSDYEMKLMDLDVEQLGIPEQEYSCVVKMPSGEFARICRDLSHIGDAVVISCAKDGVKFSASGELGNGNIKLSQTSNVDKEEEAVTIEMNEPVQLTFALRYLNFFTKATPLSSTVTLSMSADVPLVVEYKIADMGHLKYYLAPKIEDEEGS
UniProt Q9HCU8, sequence (Q9HCU8 whole entry): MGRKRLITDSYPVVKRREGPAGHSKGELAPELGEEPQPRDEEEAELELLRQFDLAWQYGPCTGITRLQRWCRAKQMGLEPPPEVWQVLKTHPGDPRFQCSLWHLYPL
UniProt Q15054, sequence (Q15054 2-466): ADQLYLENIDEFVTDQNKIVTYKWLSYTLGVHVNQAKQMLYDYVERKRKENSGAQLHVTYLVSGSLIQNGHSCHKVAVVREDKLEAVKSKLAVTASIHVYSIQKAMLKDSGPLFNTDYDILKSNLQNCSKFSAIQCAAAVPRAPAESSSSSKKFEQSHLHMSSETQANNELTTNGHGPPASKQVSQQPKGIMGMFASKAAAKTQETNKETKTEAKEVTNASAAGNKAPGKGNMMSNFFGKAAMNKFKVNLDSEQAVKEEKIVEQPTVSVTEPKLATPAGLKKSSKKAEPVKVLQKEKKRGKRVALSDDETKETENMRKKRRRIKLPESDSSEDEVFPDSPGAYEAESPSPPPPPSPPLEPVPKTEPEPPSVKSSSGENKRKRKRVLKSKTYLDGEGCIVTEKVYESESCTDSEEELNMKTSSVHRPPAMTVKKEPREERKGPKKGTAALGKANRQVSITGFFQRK

A word on the stoichiometry N: it is a count of units in the complex or per binding partner. Regarding “Chaetomium thermophilum PCNA (proliferating cell nuclear antigen) (natural protein)”, the stoichiometry N in data set [1] turned out to be 3. In the case of “GAQQARIEGFFKVIP [Ct Fen1 PIP peptide, 15mer Ct Fen1 peptide spanning residues 339–353, commercially synthesised (GenScript), purity 99.1%]”, the “solubility in aqueous solution” value in data set [2] was “insoluble in aqueous solution”.

A word on the Kd: it is a measure of binding affinity in units of concentration. With PCNA (from UniProt P12004), the results for the Kd in data set [3] and in data set [4] were 38 µM and 16 µM, respectively. On to GKGGQGSIMSWFAKK [Ct PolD3 PIP peptide (15mer, residues 437-451)], for which, in data set [5], the Kd was determined as 43.2 µM and the stoichiometry N (PIP peptide per PCNA protomer) was 1.
